The nature of this data set: soluble on expression in E. coli; label from the status in PepcDB or PDB records.
“MMNTKVALKQLMATHFITVDVPCPECGGAMTAWKEPTPDTPPRCPPVCMECGYRSVKKKEATTAKNLYESSLIKKAKDYFLNGSVLTDRKSLHKKISNYYPSNQESTKAKNISMEFCEKTLLGEIHHLILTGGVGVGKSHLAIGCLNEILVKSNYSKKVLFVSYRELLEQLKFAMNDEEARKAITGVAMSEIKAADVVVLDDIGAELGDFNKRDEKGNLILSRASNFDIDTLTGILESRIDKPTIITSNLKSKEIKYCYGERIVSRMATHSNGFMHRFTNTKDYRLKTALEHHHHHH”: the “soluble on expression in E. coli” value is “soluble”.

Regarding “MSLEGRRICVDSCPITCITFCAAHTALGPHHGRSGCAVVIRSMDEKLKRVAHAVSDMGLMSKILGESGSSRNTEDYVELNANEFEMTGTELERQVRIARISDKQDVIDIKDAVYDGDVVVADITRHSTQDRTMEHISDELKQVANEVGGDIVQKDDDQLIITPAGVGIARERLGREGHHHHHH”, the “soluble on expression in E. coli” value is “soluble”.

With “MAGMHFLVGISTENYVILAADKATFAYGAILADSENDKEYRLGKKLTMMCIGEEGDVAQFGDWTKRNLQLYSVRNGYEVSPSCAHHFVRRSIAEGLRSQDHYTVDVLIGGYDDKEDKAFLGSVDYLANGLGQQPYLFRGFCGRFCYAIMDREYKKDMTEAEGLALMNKCIGEAKRRFVANIPGYKVVIIDKKGYRKLDDVLF”, the “soluble on expression in E. coli” value was “soluble”.

On to “MGDSFYIRTHFELEPSPPSGLGFTRGDVFHVLDTLHPGPGQSHARGGHWLAVRMGRDLREQERGIIPNQSRAEQLASLEAAQRAVGVGPGSSAGSNARAEFWRLRGLRRGAKKTTQRSREDLSALTRQGRYPPYERVVLREASFKRPVVILGPVADIAMQKLTAEMPDQFEIAETVSRTDSPSKIIKLDTVRVIAEKDKHALLDVTPSAIERLNYVQYYPIVVFFIPESRPALKALRQWLAPASRRSTRRLYAQAQKLRKHSSHLFTATIPLNGTSDTWYQELKAIIREQQTRPIWTAEDQLHHHHHH”, for which the “soluble on expression in E. coli” value is reported as “soluble”.

For the sequence “MSLGLDNLYRVLDANVNRTSEGLRVLEDLARFCYNDRLLSKRIKELRHSVRKNIAGLVPNLISSRDSVNDVGLKTSMEMDIDRKASLLDLARANFKRVQEALRTVEESLKVLNENDLSKFYESCRFETYSIEKEYFKVLTFENKKGRLNEIITGLYCITSEEHSKGRSNIEVVEKMIKAGVKIIQYREKKKSLLEKYNECKKIREMTLDSGVTFIVNDNIDIAMMVKADGVHIGQDDLPIEKVRELVGDEMIIGISTHSPTQAEDAVRRGADYIGVGPLYRTYTKEDVCEPVGLEYLDYVVKNINIPYVAIGGIKEHNMDEVLARGARCIAMVTEIVGADDIEEKISKVKSKFSRGEGHHHHHH”, the “soluble on expression in E. coli” value is recorded as “soluble”.

As for “MAHHHHHHMNTHVISVGSRWVHHEVTQALRQRRGVRVEVNEELQHCDFASRASSVLYCDAHSAEMQRDQASLVLRLQEARQRCGTQPVILMVRMDSDNEVSLERLSWLNLECGVAQQCGLILVWSLDDAVQYLASLAAYAVTSLEFTGAARPYVGDAPLPVLVDALTQTPQVVTRNDVVRIANRKTSVADALMSEASEWEGIAGLDARKRLVCSTSFAHHLCPRSSASTPLYRPPAAAVSLPLIKPQNLISRSQQESPQRGRQRPLASTRP”, the “soluble on expression in E. coli” value is on record as “not soluble”.

Take “MSLKITELSRDLTTGLTTATTSIADYFFGNTHHSHHVFYLNLTVLKAKRAAKVENKKFIDLKLIKLTSGNGGNGCVSFFKDNFKPMGPPDGGDGGNGGSIYLNVVDKNITSLHGLQKRYVAKGGQPGKGSQLDGKSGDDIIIDIPLGTIVRWIPDPQDFKKFVSQREGDALNDVFMEFDIDDRDFIQLNRGGYRPGEGWIFKEHDEEYFRDKDFFQDLNEKVTGYDEELLFEESYNDRFPIVGLDCNQVTQKPLLLLRGGKGGLGNMHFLTKEIKGPRFCKMGRPGITANFLLELKLIADLGLVGLPNAGKSSLLRAISKARPRVGHWEFTTLQPTVGTIFTRIDKDPFTVADIPGIIKGASQNKGMGLDFLRHIERSGGLVFVVSLESANPVDDLKILLEEVGPRRMKDKNVLVVATKADLSSEGANFKVLRDYIEHNHSEWKIVPVCAPKGENVERCIKLMSEIAQTKKKEGHHHHHH”: the “soluble on expression in E. coli” value is on record as “soluble”.

Regarding “MGSDKIHHHHHHMLHQLTVLFKDHLSTDPTVYCTDKYTVYQLADGLRFGIENTILTPRELDLLNLLVERVVTSESDQIVTWRRRLEQPSSEEAHPFRMIHFLFEQLDVRTGEDLQQLLTSFFHPSSWIIPLTSNRLVVIEREDSVSENDLHDFFTALQSDFLMDGKVLIGQQRQSGDLAAQFRLEQAALRELPLLHIERFLPALMRLTLLSNEVRDDLIERFITPLERESRETIDAFCRANLNVSLTAKHLFLHRNSLQYRLDRLTEQTEIDIRSFEGAMFLYTLLLVA”, the “soluble on expression in E. coli” value was “not soluble”.

For “MSLAVLGDVARLADVSTATVSRVYNEPDKVSPSVRERVLQAAAALNWIPNAAGRALASTRTHIAGAIIPTLDDQVFASQVAGMQAVFAERGITLFLGCSNYDPAQALIQVRAMLARGVEVIAIVGEAHPPELFDALKQARVPYAITYAYREGSPHHCIGFDNRAAFVAIAEHLLALGHRTFAAVIQPARDNDRVQARVAGIREALERHGIAVRPSHLHEGPATIAFGRQSLRAIWQGADERPTAIICGNDQLAIGVLLEAAELGIKVPQQLSVTGFDDVAIAQQIHPSLTTVRVDTAEIGRRAARYLLDVLDGKEAAESGLVQPELMVRESTAEGHHHHHH”, the “soluble on expression in E. coli” value is given as “soluble”.

As to “MIIEKKIKNYTVFVKKDGEKYIEIFKDFLSYNHQVIKVFRNIEDTKVVLINTDYGKYILKVFSPKVKNTERFFKSLVKGDYYEKLFHQTDRVRREGFAALNDFYLLAEIKTLRYVKTYVMIIEYIEGIELVDMPEISDEVRGKIKQSIYSLHQHGMVSGDPHKGNFILQGNEIRIIDLSGKRPSRQRKAKDRIDLERHYGIKNNVRDIGFYLLIYKKKLRNFLRRIKGKEKRLEHHHHHH”, the “soluble on expression in E. coli” value was “not soluble”.

Consider “MSQYSENIIIGAGAAGLFCAAQLAKLGKSVTVFDNGKKIGRKILMSGGGFCNFTNLEVTPAHYLSQNPHFVKSALARYTNWDFISLVAEQGITYHEKELGQLFCDEGAEQIVEMLKSECDKYGAKILLRSEVSQVERIQNDEKVRFVLQVNSTQWQCKNLIVATGGLSMPGLGATPFGYQIAEQFGIPVIPPRASLVPFTYRETDKFLTALSGISLPVTITALCGKSFYNQLLFTHRGISGPAVLQISNYWQPTESVEIDLLPNHNVEEEINQAKQSSPKQMLKTILVRLLPKKLVELWIEQGIVQDEVIANISKVRVKNLVDFIHHWEFTPNGTEGYRTAEVTMGGVDTKVISSKTMESNQVSGLYFIGEVLDVTGWLGGYNFQWAWSSAYACALSISRQ”, for which the “soluble on expression in E. coli” value is “soluble”.

“MANDPYIQSFTCFDGTRRLLTAALPEVALALKQAVAGGAAGPLLVFDNATGRSVDLDIRGSSEDLLARLVVAGERQPAEEAAPRGRGRPKLGVVAREVTLLPRHWEWLAAQPGGASVALRKLVEEARRSQSGRARQAQERAYHFMNAMAGDLPGFEEATRALFAGDREGFAERIAGWPTDVREHAAWLASDGES”: the “soluble on expression in E. coli” value was “not soluble”.

As to “MGSDKIHHHHHHMAQYSAQFNHAKVLVLGDVMLDRYWFGATNRISPEAPVPVVRVQQNEERAGGAANVAMNIASLNVPVQLLGLTGQDEAGAALTSLLQQQKIACDFVQLATHPTITKLRILSRHQQLLRLDFEEDFQNMTSADLLKKLESAVKNYGALILSDYGKGTLNEVQKMIQIARNANVPVLIDPKGTDFERYRGATLLTPNMSEFEAVVGKCHSEQEIIDKGLKLISEINLTALLVTRSEKGMTLLRPNQPVYHLPTEAKEVFDVTGAGDTVISVLATALADGRSFEEACYLANVAAGIVVGKLGTSTVSTVELENAIHGRTGTGFGVMTEAELKEAVKLAKDRGEKIVMTNGCFDILHPGHVSYLDNARKFGDRLIVAVNTDDSVKRLKGEERPINNLASRMAVLAGLSSVDWLVPFGEDTPQRLIGEVLPDLLVKGGDYKPEEIAGSKEVWANGGDVKVLNFENGFSTSNVIKKIKHLEK”, the “soluble on expression in E. coli” value was “not soluble”.

As to “MSLKKFLKMFFPHDGIYEVLVGTSGIKPIIKPLGIIVEANELRSKIYKSTLTYSNLEKNNKCSIHVTLDTTFFILSMLDKLTFSIDSDYNVPVLKNLNVIYAECMKTSSTDPSIFTINPLDLEINSNLTRAYNRGDYISVDFLVNYTRLDIYKGEDLEKLVRILEYEWSVIKRTSQYTSSLLEEILNKMRSKGFKLDEGHHHHHH”, the “soluble on expression in E. coli” value was “not soluble”.

As to “MGSDKIHHHHHHMPIHLIWGNDYEACNREIEELINSVIDSSWKSFNYSQLDGNDPKQNLRALEEAQSAPLGSGGRIVLVRRSPFCNGCSIELGNKLEQVIKLIPDKTHLILSNANKPDKRLKTTKLIEKSIQSNTLSQEKSFILPLPWDINGQRNLVKNNLERLNLKMNYETIDLIVESIGNDSSLINTELQKLSLFSEAVNTNLTTDKPREISKELVKKLIQNNSTNALEIANSLLKGEKIIALNKIQSLLKNGEPALRLITTLTGQSRGWLWVHLLDSQGNQDVKEIAKLAGIANPKRIFVIRKQIQGKSLGTLLELMKKLLKIEASIKSGIKPIDSFKDNLLTDSKILANN”, the “soluble on expression in E. coli” value was “not soluble”.

As for “MSATRHRSDGHEEIVALDALPLSAAIRRRELSCREVMQAYLAQIERFNPRVNAIVSLQAESRLLTQADERDRQLARGEWLGWMHGMPQAIKDLAATSGIPTTLGSPLFAGQVPEHDAIVVERVKSSGAIVIGKTNVPEFGLGSQTYNPLFGTTRNAYDPARIAGGSSGGAAVALALRMLPVADGSDMMGSLRNPAAYNNVYGFRPSQGRVPHGPQAELFVQQLATEGPMGRSVADLARLLATQAGYDPRCPLSLRDDPRRFADDLGRDFRGARLGWLGDYAGYLPMEEGVLELCEAALGDFAELGCDVEACLPDYPLERLWRTWLVHRQWLVQGSLGELYADPARRVRLKPEAQWEVESGLGLGAAEVYRASLDRSDWYRALARLFERYDFLLLPSAQVFPFDAETAWPRQVAGRPMDTYHRWMEVVIGPTLAGLPAISVPIGFGAAGLPMGLQIIGPAQADLAVLQLAHAHEGLTRWVSRRPPAMLEAPGGI”, the “soluble on expression in E. coli” value is “not soluble”.

Take “MYPSDFASALESLSLKEMRQAIHRLLDIRDENTWMLFGTLPFYACSPDEDDQKLLRRLRAAKNVTVRNDPDGRSRLNVNIFDGNIIVTDFGDTPPLGNIQTDSLPSAYEKWRETKLAKELSCHCPNVRCLGPNVLVKNSYYQDTDFTKRQARS”: the “soluble on expression in E. coli” value is reported as “not soluble”.

With “TKAVTFYEDINYGGASVSLQPGNYTLSQLNTAKIPNDWMTSLKVPSGWTVDVYENDNFTGTKWTYTSDTPWVGNDANDKMTSVKIYST”, the “soluble on expression in E. coli” value is reported as “soluble”.

Take “ESLCPQHHEALSLFCYEDQEAVCLICAISHTHRAHTVVPL”: the “soluble on expression in E. coli” value is recorded as “soluble”.

Take “NTFYEITLEDESVLLDEVVAIGYGTQSKATVTSGVVSVKKAELMSSVSASPLNNLQGKVAGLDIRQTTGQPGAQPVVLIRGGSTDPANDSPLFVIDGVVRSNMNGLNQEDIESMEVLKDAASAAIYGAKAANGIILITTKQGSSKD”: the “soluble on expression in E. coli” value is given as “not soluble”.

“MSLPAGPSMACQKGTSTWAKAERPRSAKGRSFRMARILLPFSATMGGSRLQWEGMAASHALKPILELLPEELPGEGYRRAQIAHWLYAKGARDFSEMTDLPKALREALAREWRLSEFSLVQAFPSQDGSVKYLFTLLDGKKTEAVYMPYENRKTVCLSTMVGCPAGCTFCATGALGFGRNLTAAEILDQLLTIAYHQGLSPREIRNVVLMGMGEPLLNLRNVLKAVRIMLHKKALALSPRRVTLSTVGIPKGIYRLAEEDLGVRLALSLHAPDDETRRKIIPTAHRYPIAEIMEAVRHYHAKTKRRVTFEYTLLKGVNDHLWQARLLAKLLKGLSAHVNLIPFNPWEGAPVVGTPRAGVLAFAEELKRLGVPTSIRWSRGQDVGAACGQLALKVPRPLTLTPLPGGAGR”: the “soluble on expression in E. coli” value is listed as “soluble”.

The values are drawn from the DeepSol protein solubility set.
